According to the supplement of paper PMC9112550, “Optimization of the antimicrobial peptide Bac7 by deep mutational scanning” (BMC Biology, 2022):

System: Escherichia coli TOP10
Assay: shrunken log2 fold change of peptide-encoding DNA abundance (4.5 h post-induction vs induction); higher = less antimicrobial activity (less host growth inhibition)
Conditions: time post-induction: 4.5 h; library: site-saturation at positions 5, 18, 19, 20
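Also: peptides expressed intracellularly from a pBAD plasmid library in pooled LB shake-flask culture, induced with 0.3% L-arabinose, DNA abundance read by NGS, three biological replicates, DESeq2 with apeglm shrinkage.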

| Sequence | shrunken log2 fold change |
| --- | --- |
| RRIRWRPPRLPRPRPRPSPKPRP | 0.403 |
| RRIRWRPPRLPRPRPRPSPRPRP | 0.299 |
| RRIRWRPPRLPRPRPRPSPVPRP | -0.0363 |
| RRIRWRPPRLPRPRPRPSRHPRP | 0.0203 |
| RRIRWRPPRLPRPRPRPSRLPRP | 0.00373 |
| RRIRWRPPRLPRPRPRPSRNPRP | -0.0585 |
| RRIRWRPPRLPRPRPRPSSLPRP | 0.449 |
| RRIRWRPPRLPRPRPRPSTCPRP | -0.457 |
| RRIRWRPPRLPRPRPRPSTDPRP | 0.0398 |
| RRIRWRPPRLPRPRPRPSTEPRP | 0.0764 |
| RRIRWRPPRLPRPRPRPSTIPRP | -0.374 |
| RRIRWRPPRLPRPRPRPSVGPRP | 0.149 |
| RRIRWRPPRLPRPRPRPSWWPRP | 0.2 |
| RRIRWRPPRLPRPRPRPSYLPRP | -0.417 |
| RRIRWRPPRLPRPRPRPSYSPRP | -0.705 |
| RRIRWRPPRLPRPRPRPTAEPRP | 1.76 |
| RRIRWRPPRLPRPRPRPTDVPRP | -0.283 |
| RRIRWRPPRLPRPRPRPTEAPRP | 0.214 |
| RRIRWRPPRLPRPRPRPTEVPRP | 0.0181 |
| RRIRWRPPRLPRPRPRPTEYPRP | -0.0755 |
| RRIRWRPPRLPRPRPRPTFGPRP | -0.0806 |
| RRIRWRPPRLPRPRPRPTFNPRP | 0.00157 |
| RRIRWRPPRLPRPRPRPTGLPRP | 0.0239 |
| RRIRWRPPRLPRPRPRPTGMPRP | 0.117 |
| RRIRWRPPRLPRPRPRPTHCPRP | 0.213 |

| Sequence | shrunken log2 fold change |
| --- | --- |
| RRIRWRPPRLPRPRPRPTHMPRP | 0.206 |
| RRIRWRPPRLPRPRPRPTKSPRP | 0.176 |
| RRIRWRPPRLPRPRPRPTKYPRP | -0.124 |
| RRIRWRPPRLPRPRPRPTMHPRP | 0.454 |
| RRIRWRPPRLPRPRPRPTMIPRP | -0.0926 |
| RRIRWRPPRLPRPRPRPTNVPRP | -0.0165 |
| RRIRWRPPRLPRPRPRPTPLPRP | 0.557 |
| RRIRWRPPRLPRPRPRPTQCPRP | 0.115 |
| RRIRWRPPRLPRPRPRPTQMPRP | 0.59 |
| RRIRWRPPRLPRPRPRPTRSPRP | 0.723 |
| RRIRWRPPRLPRPRPRPTTMPRP | -0.0212 |
| RRIRWRPPRLPRPRPRPTVQPRP | 0.116 |
| RRIRWRPPRLPRPRPRPTVSPRP | -0.156 |
| RRIRWRPPRLPRPRPRPTVWPRP | 0.533 |
| RRIRWRPPRLPRPRPRPTYPPRP | -0.553 |
| RRIRWRPPRLPRPRPRPVAAPRP | 0.855 |
| RRIRWRPPRLPRPRPRPVAMPRP | 0.427 |
| RRIRWRPPRLPRPRPRPVCMPRP | 0.193 |
| RRIRWRPPRLPRPRPRPVDEPRP | 0.0343 |
| RRIRWRPPRLPRPRPRPVFEPRP | 0.333 |
| RRIRWRPPRLPRPRPRPVHAPRP | 0.109 |
| RRIRWRPPRLPRPRPRPVHCPRP | -0.162 |
| RRIRWRPPRLPRPRPRPVHEPRP | 0.21 |
| RRIRWRPPRLPRPRPRPVHYPRP | -0.0467 |
| RRIRWRPPRLPRPRPRPVLQPRP | 0.177 |

| Sequence | shrunken log2 fold change |
| --- | --- |
| RRIRWRPPRLPRPRPRPVLYPRP | 0.0298 |
| RRIRWRPPRLPRPRPRPVMWPRP | 0.236 |
| RRIRWRPPRLPRPRPRPVPKPRP | 0.524 |
| RRIRWRPPRLPRPRPRPVQGPRP | -0.124 |
| RRIRWRPPRLPRPRPRPVQQPRP | -0.0911 |
| RRIRWRPPRLPRPRPRPVQTPRP | 0.459 |
| RRIRWRPPRLPRPRPRPVTSPRP | 0.112 |
| RRIRWRPPRLPRPRPRPVWDPRP | 0.177 |
| RRIRWRPPRLPRPRPRPVYDPRP | -0.15 |
| RRIRWRPPRLPRPRPRPWACPRP | 0.0611 |
| RRIRWRPPRLPRPRPRPWCEPRP | -0.372 |
| RRIRWRPPRLPRPRPRPWFAPRP | 0.135 |
| RRIRWRPPRLPRPRPRPWFDPRP | 2.76 |
| RRIRWRPPRLPRPRPRPWFGPRP | -0.0254 |
| RRIRWRPPRLPRPRPRPWGWPRP | 0.276 |
| RRIRWRPPRLPRPRPRPWKWPRP | -0.0893 |
| RRIRWRPPRLPRPRPRPWLIPRP | 0.112 |
| RRIRWRPPRLPRPRPRPWNIPRP | -0.0879 |
| RRIRWRPPRLPRPRPRPWNPPRP | -0.219 |
| RRIRWRPPRLPRPRPRPWNSPRP | 0.0293 |
| RRIRWRPPRLPRPRPRPWPCPRP | 0.0272 |
| RRIRWRPPRLPRPRPRPWPEPRP | 0.167 |
| RRIRWRPPRLPRPRPRPWQDPRP | -0.00695 |
| RRIRWRPPRLPRPRPRPWQNPRP | -0.159 |
| RRIRWRPPRLPRPRPRPWRYPRP | -0.262 |

| Sequence | shrunken log2 fold change |
| --- | --- |
| RRIRWRPPRLPRPRPRPWSPPRP | -0.0542 |
| RRIRWRPPRLPRPRPRPWSVPRP | -0.174 |
| RRIRWRPPRLPRPRPRPWTLPRP | -0.0248 |
| RRIRWRPPRLPRPRPRPWVGPRP | 0.207 |
| RRIRWRPPRLPRPRPRPWVMPRP | -0.129 |
| RRIRWRPPRLPRPRPRPYCDPRP | -0.218 |
| RRIRWRPPRLPRPRPRPYDDPRP | -0.321 |
| RRIRWRPPRLPRPRPRPYDIPRP | -0.00748 |
| RRIRWRPPRLPRPRPRPYDRPRP | 0.0155 |
| RRIRWRPPRLPRPRPRPYEDPRP | -0.231 |
| RRIRWRPPRLPRPRPRPYEFPRP | -0.00843 |
| RRIRWRPPRLPRPRPRPYEPPRP | -0.261 |
| RRIRWRPPRLPRPRPRPYEVPRP | -0.114 |
| RRIRWRPPRLPRPRPRPYHYPRP | 0.0463 |
| RRIRWRPPRLPRPRPRPYIHPRP | -0.405 |
| RRIRWRPPRLPRPRPRPYKEPRP | -0.387 |
| RRIRWRPPRLPRPRPRPYLEPRP | -0.112 |
| RRIRWRPPRLPRPRPRPYMGPRP | -0.106 |
| RRIRWRPPRLPRPRPRPYMLPRP | -0.298 |
| RRIRWRPPRLPRPRPRPYNLPRP | -0.991 |
| RRIRWRPPRLPRPRPRPYNTPRP | -0.162 |
| RRIRWRPPRLPRPRPRPYPEPRP | -0.224 |
| RRIRWRPPRLPRPRPRPYPLPRP | -0.0066 |
| RRIRWRPPRLPRPRPRPYQDPRP | -0.411 |
| RRIRWRPPRLPRPRPRPYQMPRP | -0.0321 |

| Sequence | shrunken log2 fold change |
| --- | --- |
| RRIRWRPPRLPRPRPRPYSLPRP | -0.201 |
| RRIRWRPPRLPRPRPRPYVRPRP | -0.0178 |
| RRIRWRPPRLPRPRPRPYVTPRP | -0.385 |
| RRIRWRPPRLPRPRPRPYWVPRP | -0.294 |
| RRIRWRPPRLPRPRPRPYYCPRP | -0.00583 |
| RRIRWRPPRLPRPRPRPYYTPRP | -0.899 |
| RRIRYRPPRLPRPRPRPADDPRP | -0.0179 |
| RRIRYRPPRLPRPRPRPAEDPRP | -0.176 |
| RRIRYRPPRLPRPRPRPAFSPRP | 0.0115 |
| RRIRYRPPRLPRPRPRPAFTPRP | -0.639 |
| RRIRYRPPRLPRPRPRPAGAPRP | 0.421 |
| RRIRYRPPRLPRPRPRPAGEPRP | -0.148 |
| RRIRYRPPRLPRPRPRPAGGPRP | 0.148 |
| RRIRYRPPRLPRPRPRPAGIPRP | -0.359 |
| RRIRYRPPRLPRPRPRPAHIPRP | -0.467 |
| RRIRYRPPRLPRPRPRPAIKPRP | -0.411 |
| RRIRYRPPRLPRPRPRPAISPRP | -0.149 |
| RRIRYRPPRLPRPRPRPAKDPRP | -0.151 |
| RRIRYRPPRLPRPRPRPAKEPRP | 0.0142 |
| RRIRYRPPRLPRPRPRPALVPRP | 0.112 |
| RRIRYRPPRLPRPRPRPALYPRP | -0.284 |
| RRIRYRPPRLPRPRPRPAMLPRP | -0.372 |
| RRIRYRPPRLPRPRPRPAMTPRP | 0.165 |
| RRIRYRPPRLPRPRPRPANHPRP | -0.463 |
| RRIRYRPPRLPRPRPRPANPPRP | -0.422 |

| Sequence | shrunken log2 fold change |
| --- | --- |
| RRIRYRPPRLPRPRPRPAPIPRP | 0.226 |
| RRIRYRPPRLPRPRPRPAQSPRP | 0.256 |
| RRIRYRPPRLPRPRPRPARFPRP | 0.181 |
| RRIRYRPPRLPRPRPRPASYPRP | -0.156 |
| RRIRYRPPRLPRPRPRPATFPRP | -0.681 |
| RRIRYRPPRLPRPRPRPAVSPRP | 0.0627 |
| RRIRYRPPRLPRPRPRPAWWPRP | 0.365 |
| RRIRYRPPRLPRPRPRPAYFPRP | -0.782 |
| RRIRYRPPRLPRPRPRPCAYPRP | -0.0775 |
| RRIRYRPPRLPRPRPRPCCIPRP | -0.129 |
| RRIRYRPPRLPRPRPRPCCKPRP | 0.0599 |
| RRIRYRPPRLPRPRPRPCCQPRP | 0.0173 |
| RRIRYRPPRLPRPRPRPCDAPRP | -0.255 |
| RRIRYRPPRLPRPRPRPCEYPRP | -0.138 |
| RRIRYRPPRLPRPRPRPCFDPRP | -0.808 |
| RRIRYRPPRLPRPRPRPCFKPRP | -0.328 |
| RRIRYRPPRLPRPRPRPCGHPRP | -0.0238 |
| RRIRYRPPRLPRPRPRPCIYPRP | -0.207 |
| RRIRYRPPRLPRPRPRPCLMPRP | -0.225 |
| RRIRYRPPRLPRPRPRPCMNPRP | -0.0223 |
| RRIRYRPPRLPRPRPRPCMRPRP | -0.091 |
| RRIRYRPPRLPRPRPRPCMSPRP | -0.282 |
| RRIRYRPPRLPRPRPRPCNNPRP | -0.331 |
| RRIRYRPPRLPRPRPRPCPAPRP | -0.772 |
| RRIRYRPPRLPRPRPRPCPHPRP | -0.0263 |
